Test results as given in patent US20190077860A1 (EISAI R AND D MANAGEMENT, published 2019).
Changes are numbered by the printed parent chain. Numbers in names are those of the source.

B1: humanized antibody No. 67 (antibody, human IgG1, kappa)
heavy: QIQLVQSGSELKKPGASVKVSCKASGYTFTDYSMHWVRQAPGQGLKWMGWINTETGEPTYAQGFTGRFVFSLDTSVSTAYLQISSLKAEDTAVYYCARIPLYYYGSRYWYFDVWGQGTTVTVSSASTKGPSVFPLAPSSKSTSGGTAALGCLVKDYFPEPVTVSWNSGALTSGVHTFPAVLQSSGLYSLSSVVTVPSSSLGTQTYICNVNHKPSNTKVDKRVEPKSCDKTHTCPPCPAPPAAAPSVFLFPPKPKDTLMISRTPEVTCVVVDVSHEDPEVQFNWYVDGVEVHNAKTKPREEQFNSTFRVVSVLTVVHQDWLNGKEYKCKVSNKGLPAPIEKTISKTKGQPREPQVYTLPPSREEMTKNQVSLTCLVKGFYPSDIAVEWESNGQPENNYKTTPPMLDSDGSFFLYSKLTVDKSRWQQGNVFSCSVMHEALHNHYTQKSLSLSPG
light: DIQMTQSPSSLSASVGDRVTITCRASENIYRNLAWYQQKPGKAPKLLVYAATNLADGVPSRFSGSGSGTDYTLTISSLQPEDFATYYCQHFWGTPWTFGQGTKVEIKRTVAAPSVFIFPPSDEQLKSGTASVVCLLNNFYPREAKVQWKVDNALQSGNSQESVTEQDSKDSTYSLSSTLTLSKADYEKHKVYACEVTHQGLSSPVTKSFNRGEC
notes: human Ig kappa; also called L1-4/HA4
B2: humanized antibody No. 91 (antibody, human IgG1, kappa)
heavy: B1 heavy with I2V, Q62D, G63D, T65K
light: B1 light with K45Q, V48L
notes: human Ig kappa; also called L1-6/HK2
B3: humanized antibody No. 89 (antibody, human IgG1, kappa)
heavy: B1 heavy
light: B1 light with K45Q, V48L
notes: human Ig kappa; also called L1-6/HA4
B4: humanized antibody No. 78 (antibody, human IgG1, kappa)
heavy: B1 heavy with I2V, Q62D, G63D, T65K
light: B1 light
notes: human Ig kappa; also called L1-4/HK2
B5: humanized antibody No. 77 (antibody, human IgG1, kappa)
heavy: B1 heavy with I2V, K46E, Q62D, G63D, T65K
light: B1 light
notes: human Ig kappa; also called L1-4/HK1
B6: humanized antibody No. 86 (antibody, human IgG1, kappa)
heavy: B1 heavy with Q62D, G63D, T65K
light: B1 light with V48L, P80S
notes: human Ig kappa; also called L1-5/HK4
B7: humanized antibody No. 90 (antibody, human IgG1, kappa)
heavy: B1 heavy with I2V, K46E, Q62D, G63D, T65K
light: B1 light with K45Q, V48L
notes: human Ig kappa; also called L1-6/HK1
B8: humanized antibody No. 84 (antibody, human IgG1, kappa)
heavy: B1 heavy with I2V, K46E, Q62D, G63D, T65K
light: B1 light with V48L, P80S
notes: human Ig kappa; also called L1-5/HK1
B9: humanized antibody No. 138 (antibody, human IgG2)
heavy: QIQLVQSGSELKKPGASVKVSCKASGYTFTDYSMHWVRQAPGQGLKWMGWINTETGEPTYAQGFTGRFVFSLDTSVSTAYLQISSLKAEDTAVYYCARIPLYYYGSRYWYFDVWGQGTTVTVSSASTKGPSVFPLAPSSRSTSESTAALGCLVKDYFPEPVTVSWNSGALTSGVHTFPAVLQSSGLYSLSSVVTVPSSNFGTQTYTCNVDHKPSNTKVDKTVERKSCVECPPCPAPPAAAPSVFLFPPKPKDTLMISRTPEVTCVVVDVSHEDPEVQFNWYVDGVEVHNAKTKPREEQFNSTFRVVSVLTVVHQDWLNGKEYKCKVSNKGLPAPIEKTISKTKGQPREPQVYTLPPSREEMTKNQVSLTCLVKGFYPSDIAVEWESNGQPENNYKTTPPMLDSDGSFFLYSKLTVDKSRWQQGNVFSCSVMHEALHNHYTQKSLSLSPG
light: B1 light
notes: as for B1
B10: humanized antibody No. 81 (antibody, human IgG1, kappa)
heavy: B1 heavy with I2V, K46E
light: B1 light with V48L, P80S
notes: human Ig kappa; also called L1-5/HA1
B11: humanized antibody No. 75 (antibody, human IgG1, kappa)
heavy: B1 heavy with I2V, K46E
light: B1 light
notes: constant region: human IgG1 CH1 and hinge, human IgG2 CH2 and CH3 with V234A, G237A, no C-terminal Lys; human Ig kappa; also called L1-4/HA1

molecular target: SEAP-His (UniProt P05187 23-511); assay: ELISA
Sequence (P05187 23-511): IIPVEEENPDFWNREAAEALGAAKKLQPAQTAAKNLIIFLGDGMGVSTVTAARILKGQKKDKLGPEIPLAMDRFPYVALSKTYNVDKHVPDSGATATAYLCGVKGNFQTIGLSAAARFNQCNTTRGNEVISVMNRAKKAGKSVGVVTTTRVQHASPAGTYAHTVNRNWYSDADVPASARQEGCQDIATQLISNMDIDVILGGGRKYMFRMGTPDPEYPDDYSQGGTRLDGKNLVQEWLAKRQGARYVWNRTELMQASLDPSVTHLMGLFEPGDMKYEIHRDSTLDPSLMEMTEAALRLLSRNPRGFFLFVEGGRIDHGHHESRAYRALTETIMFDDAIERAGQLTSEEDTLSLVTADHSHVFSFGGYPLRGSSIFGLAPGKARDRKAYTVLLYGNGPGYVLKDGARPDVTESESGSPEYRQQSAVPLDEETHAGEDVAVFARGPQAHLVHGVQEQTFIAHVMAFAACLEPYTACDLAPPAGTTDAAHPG

Which “A450 as % of hEphA4-SEAP-His” value does the source give for B1 here?
The value was 5%.

With B2 as the binder, how does the “A450 as % of hEphA4-SEAP-His” value read?
The value was 6.4%.

With B3 as the binder, how does the “A450 as % of hEphA4-SEAP-His” value read?
Its value is 5.8%.

Which “A450 as % of hEphA4-SEAP-His” value does the source give for B4 here?
The value was 5.3%.

With B5 as the binder, how does the “A450 as % of hEphA4-SEAP-His” value read?
The value was 4.7%.

For B6, which “A450 as % of hEphA4-SEAP-His” value is on record?
Its value is 6.1%.

Which “A450 as % of hEphA4-SEAP-His” value does the source give for B7 here?
The value was 5.2%.

B8 was tested. Which “A450 as % of hEphA4-SEAP-His” value did it give?
Its value is 5.1%.

With B9 as the binder, how does the “A450 as % of hEphA4-SEAP-His” value read?
Its value is 5.1%.

B10 was tested. Which “A450 as % of hEphA4-SEAP-His” value did it give?
Its value is 5%.

For B11, which “A450 as % of hEphA4-SEAP-His” value is on record?
The value was 4.4%.

molecular target: T1, human EphA2 extracellular region-SEAP-His protein (human, UniProt P29317 24-537); assay: ELISA
T1 construct: extracellular domain; also called hEphA2-SEAP-His
T1 sequence (P29317 24-537): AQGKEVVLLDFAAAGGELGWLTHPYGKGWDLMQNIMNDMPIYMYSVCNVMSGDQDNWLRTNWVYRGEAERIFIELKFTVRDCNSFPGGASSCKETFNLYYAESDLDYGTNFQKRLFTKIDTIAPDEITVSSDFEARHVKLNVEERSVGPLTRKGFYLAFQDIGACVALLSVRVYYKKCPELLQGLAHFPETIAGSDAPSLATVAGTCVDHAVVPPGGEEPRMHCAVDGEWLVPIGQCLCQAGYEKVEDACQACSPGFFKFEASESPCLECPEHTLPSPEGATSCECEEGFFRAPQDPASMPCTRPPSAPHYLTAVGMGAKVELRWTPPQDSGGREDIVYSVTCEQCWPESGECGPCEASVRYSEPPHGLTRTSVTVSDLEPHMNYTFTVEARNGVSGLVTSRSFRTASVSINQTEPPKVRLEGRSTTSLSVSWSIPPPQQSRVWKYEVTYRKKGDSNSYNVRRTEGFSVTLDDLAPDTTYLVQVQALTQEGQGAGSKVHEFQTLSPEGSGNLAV

How did the “A450 as % of hEphA4-SEAP-His” value turn out when B1 was run?
The value was 4.6%.

How did the “A450 as % of hEphA4-SEAP-His” value turn out when B2 was run?
The value was 6.1%.

How did the “A450 as % of hEphA4-SEAP-His” value turn out when B3 was run?
The value was 5.6%.

B4 was tested. Which “A450 as % of hEphA4-SEAP-His” value did it give?
The value was 4.9%.

With B5 as the binder, how does the “A450 as % of hEphA4-SEAP-His” value read?
The value was 4.5%.

Which “A450 as % of hEphA4-SEAP-His” value does the source give for B6 here?
Its value is 5.7%.

How did the “A450 as % of hEphA4-SEAP-His” value turn out when B7 was run?
Its value is 5.2%.

Which “A450 as % of hEphA4-SEAP-His” value does the source give for B8 here?
Its value is 4.9%.

With B9 as the binder, how does the “A450 as % of hEphA4-SEAP-His” value read?
The value was 5%.

With B10 as the binder, how does the “A450 as % of hEphA4-SEAP-His” value read?
The value was 4.8%.

For B11, which “A450 as % of hEphA4-SEAP-His” value is on record?
Its value is 4.6%.

molecular target: T2, human EphB4 extracellular region-SEAP-His protein (human, UniProt P54760 16-539); assay: ELISA
T2 construct: extracellular domain; also called hEphB4-SEAP-His
T2 sequence (looked up): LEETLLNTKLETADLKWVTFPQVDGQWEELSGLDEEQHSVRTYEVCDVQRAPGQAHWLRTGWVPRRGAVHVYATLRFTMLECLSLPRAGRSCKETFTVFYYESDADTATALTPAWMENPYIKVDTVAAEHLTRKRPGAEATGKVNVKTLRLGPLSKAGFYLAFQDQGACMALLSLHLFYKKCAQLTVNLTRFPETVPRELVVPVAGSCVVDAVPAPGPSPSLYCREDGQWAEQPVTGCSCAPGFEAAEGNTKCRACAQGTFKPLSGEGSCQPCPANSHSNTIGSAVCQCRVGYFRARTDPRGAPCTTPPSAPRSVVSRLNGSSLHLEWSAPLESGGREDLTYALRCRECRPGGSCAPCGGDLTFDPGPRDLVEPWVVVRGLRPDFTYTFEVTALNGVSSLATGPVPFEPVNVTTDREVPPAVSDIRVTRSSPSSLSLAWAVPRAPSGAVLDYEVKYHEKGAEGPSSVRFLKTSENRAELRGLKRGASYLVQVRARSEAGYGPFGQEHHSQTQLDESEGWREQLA

Which “A450 as % of hEphA4-SEAP-His” value does the source give for B1 here?
Its value is 4.9%.

B2 was tested. Which “A450 as % of hEphA4-SEAP-His” value did it give?
The value was 6.2%.

With B3 as the binder, how does the “A450 as % of hEphA4-SEAP-His” value read?
Its value is 5.8%.

B4 was tested. Which “A450 as % of hEphA4-SEAP-His” value did it give?
Its value is 5.1%.

Which “A450 as % of hEphA4-SEAP-His” value does the source give for B5 here?
Its value is 4.5%.

B6 was tested. Which “A450 as % of hEphA4-SEAP-His” value did it give?
Its value is 5.8%.

How did the “A450 as % of hEphA4-SEAP-His” value turn out when B7 was run?
The value was 5%.

How did the “A450 as % of hEphA4-SEAP-His” value turn out when B8 was run?
Its value is 5.4%.

Which “A450 as % of hEphA4-SEAP-His” value does the source give for B9 here?
Its value is 5.2%.

With B10 as the binder, how does the “A450 as % of hEphA4-SEAP-His” value read?
Its value is 5%.

How did the “A450 as % of hEphA4-SEAP-His” value turn out when B11 was run?
Its value is 4.6%.

molecular target: T3, human EphB6 extracellular region-SEAP-His protein (human, UniProt O15197 32-594); assay: ELISA
T3 construct: extracellular domain; also called hEphB6-SEAP-His
T3 sequence (looked up): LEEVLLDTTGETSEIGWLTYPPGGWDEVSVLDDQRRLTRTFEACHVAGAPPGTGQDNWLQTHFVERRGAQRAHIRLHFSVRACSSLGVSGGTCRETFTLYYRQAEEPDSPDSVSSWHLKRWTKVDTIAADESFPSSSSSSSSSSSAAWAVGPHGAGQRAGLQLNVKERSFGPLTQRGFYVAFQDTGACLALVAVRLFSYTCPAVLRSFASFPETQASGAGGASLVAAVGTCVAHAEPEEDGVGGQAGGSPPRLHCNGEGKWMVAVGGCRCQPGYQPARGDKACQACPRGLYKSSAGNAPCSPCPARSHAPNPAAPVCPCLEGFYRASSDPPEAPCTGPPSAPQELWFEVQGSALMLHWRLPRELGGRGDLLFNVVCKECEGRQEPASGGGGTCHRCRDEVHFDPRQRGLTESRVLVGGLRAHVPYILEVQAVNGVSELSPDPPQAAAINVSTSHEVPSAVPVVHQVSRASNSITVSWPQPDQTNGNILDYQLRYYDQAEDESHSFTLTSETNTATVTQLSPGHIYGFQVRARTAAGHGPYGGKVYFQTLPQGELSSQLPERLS

B1 was tested. Which “A450 as % of hEphA4-SEAP-His” value did it give?
The value was 4.7%.

B2 was tested. Which “A450 as % of hEphA4-SEAP-His” value did it give?
Its value is 6.3%.

How did the “A450 as % of hEphA4-SEAP-His” value turn out when B3 was run?
The value was 4.8%.

With B4 as the binder, how does the “A450 as % of hEphA4-SEAP-His” value read?
Its value is 5.2%.

For B5, which “A450 as % of hEphA4-SEAP-His” value is on record?
Its value is 4.5%.

Which “A450 as % of hEphA4-SEAP-His” value does the source give for B6 here?
The value was 5.7%.

B7 was tested. Which “A450 as % of hEphA4-SEAP-His” value did it give?
The value was 5.2%.

For B8, which “A450 as % of hEphA4-SEAP-His” value is on record?
The value was 4.9%.

How did the “A450 as % of hEphA4-SEAP-His” value turn out when B9 was run?
Its value is 5%.

Which “A450 as % of hEphA4-SEAP-His” value does the source give for B10 here?
Its value is 5%.

B11 was tested. Which “A450 as % of hEphA4-SEAP-His” value did it give?
Its value is 4.7%.
